# From PMC3491808 (Journal of biomolecular NMR, 2011)
# Non-standard residues stand in square brackets, D forms with d. No end group written: not given here. pT = C[C@@H](OP(=O)(O)O)[C@H](N)C(=O)O
# Biological target: Pin1-PPIase (isolated catalytic PPIase domain of Pin1, residues 46-163) (human, UniProt Q13526 46-163)
# Assay: NMR titration
# Sequence of Pin1-PPIase (isolated catalytic PPIase domain of Pin1, residues 46-163) (Q13526 46-163): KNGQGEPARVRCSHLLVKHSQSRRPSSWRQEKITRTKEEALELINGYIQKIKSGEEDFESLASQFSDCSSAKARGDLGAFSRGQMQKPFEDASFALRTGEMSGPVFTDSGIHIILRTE
binder,measurement,value
"GVVEVDAAV[pT]PEERHLSKMQQNGY (peptide, UniProt P05067-4 659-682, looked up) [pAPP659-682 (24-residue phosphopeptide, residues 659-682 of APP phosphorylated at T668)]",Kd,1.3 mM
